Article PMC11796367

B1: hKRM1-Fc (human IgG Fc-fused human KRM1 ectodomain) (Fc fusion)
chain: APSPGLGPECFTANGADYRGTQNWTALQGGKPCLFWNETFQHPYNTLKYPNGEGGLGEHNYCRNPDGDVSPWCYVAEHEDGVYWKYCEIPACQMPGNLGCYKDHGNPPPLTGTSKTSNKLTIQTCISFCRSQRFKFAGMESGYACFCGNNPDYWKYGEAASTECNSVCFGDHTQPCGGDGRIILFDTLVGACGGNYSAMSSVVYSPDFPDTYATGRVCYWTIRVPGASHIHFSFPLFDIRDSADMVELLDGYTHRVLARFHGRSRPPLSFNVSLDFVILYFFSDRINQAQGFAVLYQAVKEELPQERPAVNQTVAEVITEQANLSVSAARSSKVLYVITTSPSHPPQTVPG
B2: mKrm1-Fc (human IgG1 Fc-fused mouse KRM1 ectodomain) (Fc fusion)
chain: APGPRSGPECFTANGADYRGTQSWTALQGGKPCLFWNETFQHPYNTLKYPNGEGGLGEHNYCRNPDGDVSPWCYVAEHEDGVYWKYCEIPACQMPGNLGCYKDHGNPPPLTGTSKTSNKLTIQTCISFCRSQRFKFAGMESGYACFCGNNPDYWKHGEAASTECNSVCFGDHTQPCGGDGRIILFDTLVGACGGNYSAMAAVVYSPDFPDTYATGRVCYWTIRVPGASRIHFNFTLFDIRDSADMVELLDGYTHRVLVRLSGRSRPPLSFNVSLDFVILYFFSDRINQAQGFAVLYQATKEEPPQERPAVNQTLAEVITEQANLSVSAAHSSKVLYVITPSPSHPPQTAPG

Biological target: CVA8 virion (strain 14-943/GS/CHN/2014) (coxsackievirus A8 (CVA8), strain GS14)

Row | Binder | neutralization of CVA8 strain GS14 infection of RD cells (cell viability assay) [nM]
1 | B1 | 0.03
2 | B2 | 0.32
